Non-standard residues stand in square brackets, D forms with d. No end group written: not given here. Ahx = NCCCCCC(=O)O

The target in assay [1] is 23D5, recombinant IgG2c antibody. Briefly: inhibition ELISA 2nd protocol: antigen in solution varied, antibody 23D5, plate coated with G200-BSA peptide. Here is the method:
(§1) The pre-incubated samples were transferred (50 μl/well) to the blocked ELISA plates, and plates were incubated for 25 min at room temperature without shaking. Plates were washed as described above. Alkaline phosphatase conjugated anti-mouse IgG detection antibody (Mabtech, cat. no. 3310-4) was diluted 1:1000 and added to each plate (50 μl/well). The plate was sealed and incubated with shaking (900 rpm) for 45 min at room temperature and subsequently washed as described above. Alkaline phosphatase substrate (50 μl/well) was added to the plate and the optical density was read every 15 min at a wavelength of 405 nm for up to 120 min. The IC50 values were determined from a log inhibitor concentration response curve (FIG. 17).
(§2) In addition, a second inhibition ELISA with the ApoE peptides conjugated to BSA was run, in which the starting concentration of the antigens in solution was increased 10-fold. i.e. the starting concentration of the N-terminal neo-epitope of synthetic ApoE peptides conjugated to BSA and starting at amino acid L198 (SEQ ID NO:52), A199 (SEQ ID NO:51) or G200 (SEQ ID NO:50), or to BSA-conjugated negative control peptide (SEQ ID NO:53), was 10000 ng/ml. […] IC50 values were determined from a log inhibitor concentration response curve (FIG. 20).
On the technique in general: ELISA stands for enzyme-linked immunosorbent assay.

In assay [2] the target is 15F8, monoclonal anti-L198 antibody. Briefly: inhibition ELISA; antibody at 0.05 ug/ml pre-incubated with the peptide in solution (4-fold dilutions from 10000 ng/ml), then on a plate coated with L198-BSA peptide; blank reduced OD 405 nm. As to the method: (§3) 0.5 μg/ml solution of N-terminal neo-epitope peptide L198 (SEQ ID NO:52) conjugated to BSA was prepared by dilution in PBS. 50 μl/well were added to an ELISA half-area 96 well microtiter plate, the plate was sealed with adhesive sealer and incubated over night at 4° C. After discarding the solution, the plates were blocked with protein-free blocking solution (Pierce) (150 μl/well) at room temperature for 90 min with shaking (900 rpm). The blocked plate was washed four times with washing buffer containing 0.28 mM NaH₂PO₄, 2.5 mM Na₂HPO₄, 150 mM NaCl, 0.1% TWEEN®-20 and 0.0075% Kathon CG.
15F8, monoclonal anti-L198 antibody, sequence (VH, as listed by the source, chain 1 of 2): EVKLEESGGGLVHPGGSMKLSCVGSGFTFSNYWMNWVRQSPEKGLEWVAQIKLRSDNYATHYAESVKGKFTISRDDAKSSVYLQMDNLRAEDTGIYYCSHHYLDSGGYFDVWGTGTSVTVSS
15F8, monoclonal anti-L198 antibody, sequence (VL, as listed by the source, chain 2 of 2): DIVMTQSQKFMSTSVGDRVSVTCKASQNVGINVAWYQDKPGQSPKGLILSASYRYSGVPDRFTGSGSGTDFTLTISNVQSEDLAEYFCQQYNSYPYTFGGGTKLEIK
(§4) Serial dilutions of each synthetic ApoE peptide were prepared by 4-fold dilution starting from 10000 ng/ml in 96 well storage plates (30 μl final volume). Each recombinant antibody to be tested was added (30 μl) to the serial dilutions of each of the synthetic ApoE peptides at a final concentration of 0.05 μg/ml per well. Samples were pre-incubated for 45 min at room temperature with shaking (900 rpm).
as §1, with “10” for “25”, “10” for “15”, “25).” for “17).”

For assay [3], the target named is 6F4, monoclonal anti-L198 antibody. The assay is described as above. As to the method:
as §3, §4
as §1, with “10” for “25”, “10” for “15”, “25).” for “17).”

For assay [4], the target named is 17G4, recombinant IgG2c antibody. Briefly: inhibition ELISA 2nd protocol: antigen in solution varied, antibody 17G4, plate coated with G200-BSA peptide. As to the method: as §1, §2
17G4, recombinant IgG2c antibody, sequence (VH, as listed by the source, chain 1 of 2): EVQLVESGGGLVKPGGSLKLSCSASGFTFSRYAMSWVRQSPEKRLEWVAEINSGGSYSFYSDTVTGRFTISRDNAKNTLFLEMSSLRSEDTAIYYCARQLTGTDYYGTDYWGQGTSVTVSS
17G4, recombinant IgG2c antibody, sequence (VL, as listed by the source, chain 2 of 2): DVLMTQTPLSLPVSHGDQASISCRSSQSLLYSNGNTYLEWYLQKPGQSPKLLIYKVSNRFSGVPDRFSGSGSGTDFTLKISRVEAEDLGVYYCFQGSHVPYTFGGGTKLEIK
Assay [5] deals with 28F2, recombinant IgG2c antibody. Kind of assay: inhibition ELISA: antigen in solution varied, antibody 28F2 at 0.05 µg/ml, plate coated with G200-BSA peptide. As to the method:
(§5) […] of each synthetic ApoE peptide, recombinant C-terminal ApoE fragment G200-HIS and full-length ApoE4 were prepared by 4-fold dilution starting from 1000 ng/ml in 96 well storage plates (30 μl final volume). Each recombinant antibody to be tested was added (30 μl) to the serial dilutions of each of the synthetic ApoE peptides, G200-HIS or full-length ApoE4 at a final concentration of 0.05 μg/ml per well. Samples were pre-incubated for 45 min at room temperature with shaking (900 rpm).
as §1

The target of assay [6] is 23D5, recombinant IgG2c antibody. Briefly: inhibition ELISA: antigen in solution varied, antibody 23D5 at 0.05 µg/ml, plate coated with G200-BSA peptide. As to the method:
as §1

In assay [7] the target is T1, 7B10, recombinant IgG2c antibody.
T1 construct: also called 7610
T1 sequence (VH, as listed by the source, chain 1 of 2): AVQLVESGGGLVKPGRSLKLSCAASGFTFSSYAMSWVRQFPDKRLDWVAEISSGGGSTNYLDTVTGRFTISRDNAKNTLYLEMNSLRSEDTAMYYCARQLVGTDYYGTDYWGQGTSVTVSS
T1 sequence (VL, as listed by the source, chain 2 of 2): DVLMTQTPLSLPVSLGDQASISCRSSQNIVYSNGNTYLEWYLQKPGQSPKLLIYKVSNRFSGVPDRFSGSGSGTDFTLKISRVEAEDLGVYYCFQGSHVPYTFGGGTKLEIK
Kind of assay: inhibition ELISA 2nd protocol: antigen in solution varied, antibody 7B10, plate coated with G200-BSA peptide. As to the method: as §5
as §1, with “17). […]” for “17).”

Assay [8] has the same target. Briefly: inhibition ELISA: antigen in solution varied, antibody 7B10 at 0.05 µg/ml, plate coated with G200-BSA peptide. As to the method:
as §1

For assay [9], the target named is 38G9, monoclonal anti-A199 antibody. Briefly: inhibition ELISA; antibody at 0.05 ug/ml pre-incubated with the peptide in solution (4-fold dilutions from 10000 ng/ml), then on a plate coated with A199-BSA peptide; blank reduced OD 405 nm. As to the method: (§6) 0.5 μg/ml solution of N-terminal neo-epitope peptide A199 (SEQ ID NO:51) conjugated to BSA was prepared by dilution in PBS. 50 μl/well were added to an ELISA half-area 96 well microtiter plate, the plate was sealed with adhesive sealer and incubated over night at 4° C. After discarding the solution, the plates were blocked with protein-free blocking solution (Pierce) (150 μl/well) at room temperature for 90 min with shaking (900 rpm). The blocked plate was washed four times with washing buffer containing 0.28 mM NaH₂PO₄, 2.5 mM Na₂HPO₄, 150 mM NaCl, 0.1% TWEEN®-20 and 0.0075% Kathon CG.
38G9, monoclonal anti-A199 antibody, sequence (VH, as listed by the source, chain 1 of 2): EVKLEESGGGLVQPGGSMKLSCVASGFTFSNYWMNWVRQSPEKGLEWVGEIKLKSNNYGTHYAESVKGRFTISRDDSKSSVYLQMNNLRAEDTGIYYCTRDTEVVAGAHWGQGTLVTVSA
38G9, monoclonal anti-A199 antibody, sequence (VL, as listed by the source, chain 2 of 2): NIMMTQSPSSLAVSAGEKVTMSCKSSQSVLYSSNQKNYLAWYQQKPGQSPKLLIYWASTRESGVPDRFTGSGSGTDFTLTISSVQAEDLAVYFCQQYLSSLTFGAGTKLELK
(§7) Serial dilutions of each synthetic ApoE peptide were prepared by 4-fold dilution starting from 10000 ng/ml in 96 well storage plates (30 μl final volume). Each purified monoclonal antibody to be tested was added (30 μl) to the serial dilutions of each of the synthetic ApoE peptides at a final concentration of 0.05 μg/ml per well. Samples were pre-incubated for 45 min at room temperature with shaking (900 rpm).
as §1, with “10” for “25”, “10” for “15”, “29).” for “17).”

Assay [10] addresses 36A12, monoclonal anti-A199 antibody. The assay is described as above. Here is the method:
as §6, §7
as §1, with “10” for “25”, “10” for “15”, “29).” for “17).”

Assay [11] concerns the target 7C7, recombinant IgG2c antibody. Briefly: inhibition ELISA 2nd protocol: antigen in solution varied, antibody 7C7, plate coated with G200-BSA peptide. As to the method:
as §1, §2

Assay [12] has the same target. Briefly: inhibition ELISA: antigen in solution varied, antibody 7C7 at 0.05 µg/ml, plate coated with G200-BSA peptide. Here is the method: as §1
The target in assay [13] is 28F2, recombinant IgG2c antibody. Briefly: inhibition ELISA 2nd protocol: antigen in solution varied, antibody 28F2, plate coated with G200-BSA peptide. As to the method: as §5
28F2, recombinant IgG2c antibody, sequence (VH, as listed by the source, chain 1 of 2): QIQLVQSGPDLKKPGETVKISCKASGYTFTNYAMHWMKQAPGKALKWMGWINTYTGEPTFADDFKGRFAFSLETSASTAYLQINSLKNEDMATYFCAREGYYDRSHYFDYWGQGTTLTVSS
28F2, recombinant IgG2c antibody, sequence (VL, as listed by the source, chain 2 of 2): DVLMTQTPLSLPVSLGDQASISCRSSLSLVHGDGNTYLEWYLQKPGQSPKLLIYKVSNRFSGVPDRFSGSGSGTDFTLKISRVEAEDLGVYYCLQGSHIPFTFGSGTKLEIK
as §1, with “17). […]” for “17).”

The target in assay [14] is 17G4, recombinant IgG2c antibody. Briefly: inhibition ELISA: antigen in solution varied, antibody 17G4 at 0.05 µg/ml, plate coated with G200-BSA peptide. As to the method: as §1

23D5, recombinant IgG2c antibody, sequence (VH, as listed by the source, chain 1 of 2): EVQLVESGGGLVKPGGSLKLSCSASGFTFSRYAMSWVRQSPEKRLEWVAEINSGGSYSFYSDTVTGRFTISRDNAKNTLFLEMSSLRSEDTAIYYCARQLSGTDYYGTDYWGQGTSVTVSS
7C7, recombinant IgG2c antibody, sequence (VH, as listed by the source, chain 1 of 2): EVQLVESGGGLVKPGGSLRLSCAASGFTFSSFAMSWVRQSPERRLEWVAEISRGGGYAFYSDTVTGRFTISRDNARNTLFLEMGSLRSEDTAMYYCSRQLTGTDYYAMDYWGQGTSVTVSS
7C7, recombinant IgG2c antibody, sequence (VL, as listed by the source, chain 2 of 2): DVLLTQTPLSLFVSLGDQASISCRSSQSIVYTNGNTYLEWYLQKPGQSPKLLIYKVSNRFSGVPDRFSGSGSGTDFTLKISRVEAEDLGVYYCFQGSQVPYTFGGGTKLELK
36A12, monoclonal anti-A199 antibody, sequence (VH, as listed by the source, chain 1 of 2): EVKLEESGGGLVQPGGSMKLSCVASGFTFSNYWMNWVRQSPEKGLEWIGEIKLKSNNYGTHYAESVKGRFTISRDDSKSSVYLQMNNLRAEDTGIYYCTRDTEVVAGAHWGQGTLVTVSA
36A12, monoclonal anti-A199 antibody, sequence (VL, as listed by the source, chain 2 of 2): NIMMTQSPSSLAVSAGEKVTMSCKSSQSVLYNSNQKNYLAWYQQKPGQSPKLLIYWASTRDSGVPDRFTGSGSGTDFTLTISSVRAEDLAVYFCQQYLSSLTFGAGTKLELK
6F4, monoclonal anti-L198 antibody, sequence (VH, as listed by the source, chain 1 of 2): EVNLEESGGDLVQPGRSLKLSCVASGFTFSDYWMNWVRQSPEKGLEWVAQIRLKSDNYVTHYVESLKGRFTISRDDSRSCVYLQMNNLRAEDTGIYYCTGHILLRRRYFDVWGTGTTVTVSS
6F4, monoclonal anti-L198 antibody, sequence (VL, as listed by the source, chain 2 of 2): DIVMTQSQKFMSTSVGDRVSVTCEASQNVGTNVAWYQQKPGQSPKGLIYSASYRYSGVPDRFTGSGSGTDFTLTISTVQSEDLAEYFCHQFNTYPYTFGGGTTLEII

B1: G200 N-terminal neo-epitope peptide GQPLQE-Acp-C (SEQ ID NO:50) conjugated to BSA (peptide)
peptide: GQPLQE[Ahx]C
modifications: not fully specified (residue 8); printed as GQPLQE-Acp-C; also: C-terminal Cys conjugated to BSA carrier
notes: also called G200-BSA peptide; G200-peptide
Usually IC50 stands for the concentration at which inhibition is half-maximal. On to B1, for which the IC50 in [1] turned out to be 3.8 ng/mL; in [4] it was 5.8 ng/mL; in [5] it was 3.2 ng/mL; in [6], 2.8 ng/mL; in assay [7], 5.8 ng/mL; in assay [8], 2.2 ng/mL. In addition, the half-inhibitory concentration (IC50) in assay [11] came out at 6.3 ng/mL; in [12] it was 3.1 ng/mL; in [13], 3.7 ng/mL; in assay [14] it was 2.9 ng/mL. In addition, the binding result in assay [2], in [3], in assay [9] and in [10] was “no binding (tested: 10000 ng/ml)” throughout.

(Values after US20220242939A1 (BIOARCTIC, published 2022).)
